Results: US20150351390A1, “COMPOSITIONS AND METHODS FOR AUXIN-ANALOG CONJUGATION” (PIONEER HI-BRED INTERNATIONAL, INC., priority 2012, published 2015)

B1: Br040812: GH3 protein, Bra040812 (protein, listed as Brassica rapa)
chain: MSSIVELSSLEELTLNAEQIQDDLLEKILRLNSNTEYLRRFLHGSNDKELFKKNVPLANYEDVKPYIERVANGEPSDLISGGPVTRFFRSSGTSGGKQKIFPVNDEAIEQLGYVLALRSLVMSKHFSDNGVEQGKTMEFHYTKPESTTPSGLPVAAAFTSFFKSDYFKNRPSKSQYTSPDQVILCPDNKQSLYCHLLCGLSQRDEVVRFGATFAHALVRAIDFLESNWKELCGNIRLGHVSEWITDLGCRSSVSAIIGGPNPELADLIEQECSHKSWEGIVTRLWPKAKRIECVLTGQMAQYIPILDFYCNKLPLVSTVYGSSESIFGFNVDPLCKPQDVSYTFVPNTSYFEFLPVDHEGDMTSIVDLVNVKLGCYYEPVVTTCFGLNRYLIGDILEVTGFYNNTPQFRFVRRKNMVLSVETETTTEDDILKALARATFVLESSNLMLMDFTSSADISTFPGHYVFYWELKGKEVNDVLVLDEKTLMGCCYVLEESFGSTYRLKRRTGLIGALEIRVVEQGTFNSLTDYFISRGSSRAQYKTPLCINSSEASAVLENKVLARFHSEKSPPLDL
B2: Br008836: GH3 protein, Bra008836 (protein, listed as Brassica rapa)
chain: MKPISNNDETWDATLKDLTSNVKEIQDNVLEEIITPNLKTEYLQRFNMDRFDKKLFKKNVPVVSYEDIKPDIDRVVNGESSDVISARPITGFLLSSGTSGGAQKMMPWNNKYLDNLTFAYDLRMHVITKHVKGLEEGKGMMFLFTKQETKTPSGLLARVATSSYFKSDYFTNRPSNWYYSYTSPDEVILCSNNTQSLYCHLLCGLLQRDEVVRMGSIFASVMVRAIKFLETYWEELCSNIRSGRLSEWITDLGCRSSVSLVLGGPRPDLADTIETICNQSSWKGIVTRIWPNTKYIETVVTGSMGQYVPTLNYYCSDLPLVSTTYGSSETTFGINVDPLCKPEDVSYAFMPNMSYFEFITMDGEKRDVVDLHDVKIGCTYEPVVTNFAGLYRMRVGDVLLVTGFYNNAPQFRFVRRENVVLSIDSDKTNEEDLFKAVSQAKLVLDSSDLFLEDFTSYADTSTFPGHYVIYVEVKAKGGNNHLELNEEVFSKCCSVMEDSLDNVYKRCRFKDGSVGPLEIRVVDKGTFESLMDFFINQGASTGQYKTPRCIKSGKALELMEDRVVAKFFSS
B3: Sm93250: GH3 protein, Selmo1|93250 (protein, listed as Selaginella moellendorffii)
chain: MDPALFRDDIESKTKDAAAVQANLLSQMMELNGETEYLRRYGGRFDSLPIIEYHDVADEVQRIANGDTSPILTAEPVVRFFKSSGTVTGEPKLIPATSKSLELLFRRPVYMMESDVCLGFLFAKPENKSPGGLPVSTTSSMFFKVQGENLEKMFTSPMKLLLAPDINQSLYCQLLCGLIRSEDVTQVFAALAITLVEALRLLEEAWSELADDVQTGTLNSKITDPTLRSSLSLCLRPNLKLAQSIRKECTADNAWCGIVERLWPKTKVIVTITTGGMAPYAPAVRKYGGSVPIVSGDYVCTECVLGFNLDPFCPPESVSFTIHPEYAYYEFLHYPQKLTDGSTVKLVDVKVGEEYELVVSTWSGLYRYKVGDIVRVTGFHNFSPNISFVHRLNAELDIAGERSTEAELQVAVQKSQHCLPASQELVDFTCHQDGQRYLIFWEIKNGDSLNPMILETCCCVLDTSLTERYKQRRENGLIGPLRLCIVRGKTFKALQQYSLEKGINPTQYKTPRCITSPEMIAILQAGITQDCQTPA
B4: Br029173: GH3 protein, Bra029173 (protein, listed as Brassica rapa)
chain: MSMWADLSDKLDEKVLEDLTSNVKQMQDDVLKEILTLNANTEYLRPFLHGSSDKELFKKNVPVTTYDDVKLFIDRVANGEPFDVISGKPVTGFSLSSGTSGGKRKMFPCNKKYLENLNFIYCYRSLVISKHFDGLEHGKGMVFNFCVPEQTTPSGLPVSAATTLFFKSDYFKNRPSYWHWSFTSPDEVILCLDNKQSLYCHLLCGIVLRDEVVKVGTAFVSTLLRVITFLEKHWKEICTNIRYGHLSEWITDISCRDSVSKILGEPNPELADLIENECNQKSWEGIIQRLWPKTKFIESIATGQMAQHIPTLEFYSNKLPLISSSYVSSETMFGININPLCKPQDVSYTFMPHFSYFEFLLVDAGDEVEIVDLVDVKLGCHYETLVTNHSGLHRYKMGDIVQVTGFYNNAPQFRFARRGNLVLSVHMEITTDQALLNAVTHAKMVLESSNLMLMDFTGYADISTTPGHYVLYWELKGKYSNDIAKIDDKVLVECCYVVEESLDNFYKEYRKNGSIGALEIRVVQQGTFDSLMEFFISQGASSTQYKTPICIKSTEAIAILERKVRARFFTDKSLSLKFSS
B5: Sm85812: GH3 protein, Selmo1|85812 (protein, listed as Selaginella moellendorffii)
chain: MHSICLKSMEHATKNAAVIQRELLQQILEKNAGTEYLTRHGLDEESNLVDGFHKLPLVEYNDIEADIKRIADGDTGRILCSDPISQFFISSGTTTGRSKLIPVTKEANSRFFRPPLISPAWHRVFTINPDETYLAFWFASKQSLTKGGFKAETVTTSGLNSAHFKRAAASFVTPHKIFQSTSMYQCLYCHLLCGLLRREEVTVVISAFAFALTEAFRVLEQVWSELLEDIEAGSLSSRITDPILRLAMSGIAPPSPELAEQLRREFRSFSMDGIVQRLWPNAKSVVAVTTGAMAPYAPRLRALAGKTPLVCGNYFSSECLIGINLSPASSPATFTVNPEFAYFEFLSYHDGETKLNGLEEQRPVGLTEVTIGEKYEIVVTTRSGLYRYRLGDVVQVAGFFNSSPSLRFLFRRNVVMSVATDKTDEFELQAVVHKASLLLRSSSQLHDFAGYADFSSIPGHYAIFWELNHGGSMDPSTLQDCCELLDVSLNDPYLRGRSSGAIGPLKLCVVRGGSFRELFEQHVARGGSGSQYKSCRCVASKQAIDLLRRNTLQQALSSKFPNPWKLSIKSLELDQ
B6: Br031718: GH3 protein, Bra031718 (protein, listed as Brassica rapa)
chain: MSLGCDLSVLEELTSNAKQIQDDVLTKILKANTNTEYLSRFLEGSSEKELFKKNVPVVSYEDVKPYIDRVANGEPSDILSGKPITAFFRSTGTSSGEKKIFPANDNFEDILLGLALSSLVMSKHVDGYKQGKVMIFKFIQPISTTPCGLPLAPSITIIMKSKCYRSPGKRSTTPDEIIMCTDPKQSMYCQLLCGLVQRDEVVSVGALFASVLVQIIRFLEKYWKELCSNIRSGHVSDWITDHCCRDSVSTILGEPNPELADLIENECGQESWQGIVSRLWPKTKCVETIVTGIMAQYIPALEFYSDKLPIVSSIYGSSETFFGLNVNPLCKPQHVSYTFLPNMSYFEFIHVDADGEATGEIVDLVDVKSGGYYEPLVTNYSGLYRCRVGDVLHVTGFYNNAPQFRFVRRKNTVLSIFVESTTEEDVLKALDRATVVLESSDLMLTGFTCFGDVSTVPGHYVFYLELKAKVNNDTNVLLLDEKVLVEYCCVMEESLSSFYRSLRRKDGPIGPLEVRVVQQGTFDSLMEFFVSRGASITQYKTPICINSVEASRVLEDKVLARFFSDKSPTI
B7: Sm87623: GH3 protein, Selmo1|87623 (protein, listed as Selaginella moellendorffii)
chain: MDATAILSAIACDEQALGFMEHVTRHVSSVQDYVLQLLLEANAGTDYFQRHGLYGIPTKEEFRRLLPITTYSDMEADFQRLANGDESKTICAARVLEMLTSSGTSGGKQKLFPKSPSYDQEFVALNRVARAALNKKAPYASRGKSLQFFYVRKPGITSGGVTTTSGLSGYFTSPAFRQRKLDPESGYTSPDQVILCVDYQQASYCHLLCGLTQSQEVVSIGAPFASTLVRSLKALKDLWQELCVDIETGRVNDNIVSDLSVKHAVNALLKPDPKLAALVRRECSKSNWRGIVRRLWPRARIIQAIVTGSMQQYVPAIDFFSDGLPIASSIYAASECSTLGVNLSPVCSPYDVRYSPFPCFVYYEFLPVSSSSSSSPRRDDLVQLAEVELGREYELVITTRAGLYRYRVGDVLKVVGFKNSMPQFSFVGRAGVLLSVDTDKTDEVELHTAVTTAAAVMAKRNRGDVRLLDYTSRVNLSSQPGHYVVYWELSLDAAMESLEAELRECCSVMEESLSVVYRRNRREGSVGALEIKVVEPGTFDRIVDHVVFVGQGSIGQYKTPRCARDPAVLRILESSVVESSRAR

Test: LC-MS assay of GH3 conjugation of IAA with Asp or Glu
Format: biochemical
Settings: LC-MS; IAA with Asp
Procedure, shortened: (§1)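 Amino acid conjugates of IAA, 2,4-D or dicamba measured by LC-MS against conjugate standards, with kinetic parameters fitted to Michaelis-Menten initial velocities. Reactions: 5 mM each of auxin, ATP and Asp or Glu with 44 to 164 μg/mL purified His-tagged GH3 (E. coli-expressed), pH 8.0 Tris, 5 mM MgCl2, 1 mM DTT, 30 °C for 3 h.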

| Molecule | Detected auxin conjugates: IAA-Asp |
| --- | --- |
| B1 | Yes |
| B2 | Yes |
| B3 | Yes |
| B4 | Yes |
| B5 | Yes |
| B6 | No |
| B7 | Yes |

Same assay, conditions: LC-MS; IAA with Glu

| Molecule | Detected auxin conjugates: IAA-Glu |
| --- | --- |
| B1 | Yes |
| B2 | Yes |
| B3 | No |
| B4 | Yes |
| B5 | No |
| B6 | No |
| B7 | No |

Test: LC-MS assay of GH3 conjugation of 2,4-D with Asp or Glu
Format: biochemical
Settings: LC-MS; 2,4-D with Asp
Procedure, shortened: as §1

| Molecule | Detected auxin conjugates: 2,4-D-Asp |
| --- | --- |
| B1 | Yes |
| B2 | Yes |
| B3 | No |
| B4 | Yes |
| B5 | No |
| B6 | No |
| B7 | Yes |

Same assay, conditions: LC-MS; 2,4-D with Glu

| Molecule | Detected auxin conjugates: 2,4-D-Glu |
| --- | --- |
| B1 | Yes |
| B2 | Yes |
| B3 | No |
| B4 | Yes |
| B5 | No |
| B6 | No |
| B7 | No |

Test: LC-MS assay of GH3 conjugation of dicamba with Asp or Glu
Format: biochemical
Settings: LC-MS; dicamba with Asp
Procedure, shortened: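 Dicamba–amino acid (Asp or Glu) conjugates formed by purified his-tagged GH3 enzymes were detected by LC-MS on an AB Sciex 4000 QTrap with Shimadzu Nexera UHPLC and a Phenomenex Luna 3 μm Phenyl-Hexyl column, after 20× dilution of the supernatant in water. Standards were used to quantify conjugates. Protein concentration was determined by Bradford assay.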

| Molecule | Detected auxin conjugates: Dicamba-Asp |
| --- | --- |
| B1 | No |
| B2 | No |
| B3 | No |
| B4 | No |
| B5 | No |
| B6 | No |
| B7 | No |

Same assay, conditions: LC-MS; dicamba with Glu

| Molecule | Detected auxin conjugates: Dicamba-Glu |
| --- | --- |
| B1 | No |
| B2 | No |
| B3 | No |
| B4 | No |
| B5 | No |
| B6 | No |
| B7 | No |
